Four molecules from article PMC9282857, “Adaptor linked K63 di-ubiquitin activates Nedd4/Rsp5 E3 ligase” (eLife, 2022) can be followed below.

Assay [1] has as its target T1, Rsp5 HECT domain (444-809) (S. cerevisiae, UniProt P39940 444-809).
T1 construct: Rsp5 HECT domain, S. cerevisiae, residues 444-809; also called Rsp5 HECT protein; source: E. coli Rosetta (DE3), purified (TALON, Ulp1 cleavage, Superdex 200); not shown: His6, N-terminal, cleaved; SUMO, N-terminal, cleaved
T1 sequence (looked up): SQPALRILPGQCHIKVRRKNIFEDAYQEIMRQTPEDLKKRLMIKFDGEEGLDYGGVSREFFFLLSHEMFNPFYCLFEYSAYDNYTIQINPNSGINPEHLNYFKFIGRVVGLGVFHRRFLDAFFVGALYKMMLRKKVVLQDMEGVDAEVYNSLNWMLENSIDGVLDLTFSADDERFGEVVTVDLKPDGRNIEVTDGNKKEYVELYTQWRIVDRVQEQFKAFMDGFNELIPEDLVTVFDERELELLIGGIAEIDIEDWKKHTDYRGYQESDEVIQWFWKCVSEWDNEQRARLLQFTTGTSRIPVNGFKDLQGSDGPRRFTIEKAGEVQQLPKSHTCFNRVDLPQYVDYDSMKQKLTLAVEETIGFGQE
Description: ITC; Affinity-ITC calorimeter, 25°C; 20 mM Tris-HCl pH 7.5, 150 mM NaCl, 1 mM DTT; independent binding model. The following applies: both partners purified.

For assay [2], the target named is T2, Rsp5 WW1-HECT domain (224-809) (S. cerevisiae, UniProt P39940 224-809).
T2 construct: Rsp5 WW1-HECT, S. cerevisiae, residues 224-809; also called purified WW domains from Rsp5; source: E. coli Rosetta (DE3), purified (TALON, Ulp1 cleavage, Superdex 200); not shown: His6, N-terminal, cleaved; SUMO, N-terminal, cleaved
The description is as above. As to conditions: both partners purified.

The Kd is the constant that tells how readily two partners part at equilibrium. The low end stands for higher affinity, the high end for lower affinity.

B1: mono-ubiquitin (WT) (natural protein)
chain: not shown
notes: ubiquitin, S. cerevisiae, amplified from SEY6210 genomic DNA; also called Ub-WT; mono-Ub-WT; source: E. coli Rosetta (DE3), non-tagged, purified (SP Sepharose, Superdex 200)
On to B1, for which, in assay [1], the Kd was roughly 201 µM.

B2: K63-linked di-ubiquitin (complex)
chain 1: not shown
chain 2: not shown
modifications: distal ubiquitin; its C-terminus is joined by an isopeptide bond to K63 of the proximal ubiquitin | proximal ubiquitin; K63 carries the distal ubiquitin
notes: ubiquitin, S. cerevisiae; distal ubiquitin of the dimer; proximal ubiquitin of the dimer with an extra D77 after the C-terminal Gly-Gly; also called K63 di-Ub; K63-di-Ub; source: synthesised in vitro from purified Ub K63R and Ub D77 with human E1, Ubc13 and Mms2; purified (SP Sepharose, Superdex 75)
With B2, the Kd in assay [1] was 33 µM. That is a double-digit micromolar value.

B3: K48-linked di-Ub (complex)
chain 1: not shown
chain 2: not shown
modifications: distal ubiquitin; its C-terminus is joined by an isopeptide bond to K48 of the proximal ubiquitin | proximal ubiquitin; K48 carries the distal ubiquitin
notes: ubiquitin, S. cerevisiae; distal ubiquitin of the dimer; proximal ubiquitin of the dimer with an extra D77 after the C-terminal Gly-Gly; also called K48 di-Ub; source: synthesised in vitro from purified Ub K48R and Ub D77 with human E1 and E2-25K; purified (SP Sepharose, Superdex 75)
B3 gave a Kd in assay [1] of 145 µM. This Kd is about 4.4-fold higher than that of the molecule before.

B4: Art5 PY motifs containing region (520-586) (domain or fragment, S. cerevisiae, UniProt P53244 520-586, looked up)
chain: STTTAHLALPQPPPNYHESTNDHLMPALQPLGADSVVLTVPSYEQAQAQASASSYVTGSVPAYCDDD
notes: Art5, S. cerevisiae, residues 520-586 with the PY motifs; also called Art5 PY motif containing peptide; PY motifs of Art5; source: E. coli Rosetta (DE3), purified (Glutathione Sepharose, PreScission cleavage, Superdex 200)
Molecule B4 yielded an equilibrium dissociation constant (Kd) in assay [2] of 3.1 µM.
